In paper PMC3499415, “The Human Cytomegalovirus DNA Polymerase Processivity Factor UL44 Is Modified by SUMO in a DNA-Dependent Manner” (PLoS ONE, 2012):

B3: HCMV UL44 (DNA polymerase processivity factor), full-length, yeast two-hybrid fusion (natural protein)
chain: MDRKTRLSEPPTLALRLKPYKTAIQQLRSVIRALKENTTVTFLPTPSLILQTVRSHCVSKITFNSSCLYITDKSFQPKTINNSTPLLGNFMYLTSSKDLTKFYVQDISDLSAKISMCAPDFNMEFSSACVHGQDIVRESENSAVHVDLDFGVVADLLKWIGPHTRVKRNVKKAPCPTGTVQILVHAGPPAIKFILTNGSELEFTANNRVSFHGVKNMRINVQLKNFYQTLLNCAVTKLPCTLRIVTEHDTLLYVASRNGLFAVENFLTEEPFQRGDPFDKNYVGNSGKSRGGGGGGGSLSSLANAGGLHDDGPGLDNDLMNEPMGLGGLGGGGGGGGKKHDRGGGGGSGTRKMSSGGGGGDHDHGLSSKEKYEQHKITSYLTSKGGSGGGGGGGGGGLDRNSGNYFNDAKEESDSEDSVTFEFVPNTKKQKCG
notes: also called LexA-UL44; GAD-UL44; source: yeast two-hybrid fusion (S. cerevisiae L40)

Experiments:
Assay in all cases: two-hybrid
[1] = biological target: T1, HCMV UL44 (DNA polymerase processivity factor), full-length, yeast two-hybrid fusion (human cytomegalovirus (HCMV)), P16790; conditions: remark: other sources report otherwise
T1 chain: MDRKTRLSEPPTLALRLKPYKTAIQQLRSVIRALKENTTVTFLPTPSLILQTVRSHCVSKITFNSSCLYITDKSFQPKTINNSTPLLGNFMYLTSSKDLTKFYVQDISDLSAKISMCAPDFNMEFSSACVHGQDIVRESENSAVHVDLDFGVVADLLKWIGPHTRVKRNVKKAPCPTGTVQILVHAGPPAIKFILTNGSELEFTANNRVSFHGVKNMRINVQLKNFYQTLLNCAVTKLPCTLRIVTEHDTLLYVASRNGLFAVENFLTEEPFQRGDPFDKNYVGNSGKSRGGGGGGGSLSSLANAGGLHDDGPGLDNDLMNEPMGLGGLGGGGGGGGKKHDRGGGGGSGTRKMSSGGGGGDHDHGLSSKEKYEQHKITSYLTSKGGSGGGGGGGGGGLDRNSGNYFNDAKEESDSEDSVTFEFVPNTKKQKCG

[2] = biological target: B3; conditions: partners not purified
[3] = biological target: T2, human Ubc9 (SUMO-conjugating enzyme E2), yeast two-hybrid fusion (human, UniProt P63279 1-158); conditions: partners not purified
T2 construct: also called GAD-Ubc9; LexA-Ubc9
T2 sequence (P63279 whole entry, the tested form may be a part): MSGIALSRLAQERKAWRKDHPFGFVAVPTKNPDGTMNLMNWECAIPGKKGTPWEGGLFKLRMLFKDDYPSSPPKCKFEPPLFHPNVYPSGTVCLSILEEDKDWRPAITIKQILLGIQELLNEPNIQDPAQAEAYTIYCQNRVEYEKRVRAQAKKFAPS

B1: HCMV UL44 (DNA polymerase processivity factor), full-length, yeast two-hybrid fusion, P16790 1-433 (natural protein)
chain: MDRKTRLSEPPTLALRLKPYKTAIQQLRSVIRALKENTTVTFLPTPSLILQTVRSHCVSKITFNSSCLYITDKSFQPKTINNSTPLLGNFMYLTSSKDLTKFYVQDISDLSAKISMCAPDFNMEFSSACVHGQDIVRESENSAVHVDLDFGVVADLLKWIGPHTRVKRNVKKAPCPTGTVQILVHAGPPAIKFILTNGSELEFTANNRVSFHGVKNMRINVQLKNFYQTLLNCAVTKLPCTLRIVTEHDTLLYVASRNGLFAVENFLTEEPFQRGDPFDKNYVGNSGKSRGGGGGGGSLSSLANAGGLHDDGPGLDNDLMNEPMGLGGLGGGGGGGGKKHDRGGGGGSGTRKMSSGGGGGDHDHGLSSKEKYEQHKITSYLTSKGGSGGGGGGGGGGLDRNSGNYFNDAKEESDSEDSVTFEFVPNTKKQKCG
B1 showed a β-gal expression [1] of 7640 Units.

B2: HCMV UL54 (DNA polymerase catalytic subunit), GAD fusion (enzyme)
chain: MFFNPYLSGGVTGGAVAGGRRQRSQPGSAQGSGKRPPQKQFLQIVPRGVMFDGQTGLIKHKTGRLPLMFYREIKHLLSHDMVWPCPWRETLVGRVVGPIRFHTYDQTDAVLFFDSPENVSPRYRQHLVPSGNVLRFFGATEHGYSICVNVFGQRSYFYCEYSDTDRLREVIASVGELVPEPRTPYAVSVTPATKTSIYGYGTRPVPDLQCVSISNWTMARKIGEYLLEQGFPVYEVRVDPLTRLVIDRRITTFGWCSVNRYDWRQQGRASTCDIEVDCDVSDLVAVPDDSSWPRYRCLSFDIECMSGEGGFPCAEKSDDIVIQISCVCYETGGNTAVDQGIPNGNDGRGCTSEGVIFGHSGLHLFTIGTCGQVGPDVDVYEFPSEYELLLGFMLFFQRYAPAFVTGYNINSFDLKYILTRLEYLYKVDSQRFCKLPTAQGGRFFLHSPAVGFKRQYAAAFPSASHNNPASTAATKVYIAGSVVIDMYPVCMAKTNSPNYKLNTMAELYLRQRKDDLSYKDIPRCFVANAEGRAQVGRYCLQDAVLVRDLFNTINFHYEAGAIARLAKIPLRRVIFDGQQIRIYTSLLDECACRDFILPNHYSKGTTVPETNSVAVSPNAAIISTAAVPGDAGSVAAMFQMSPPLQSAPSSQDGVSPGSGSNSSSSVGVFSVGSGSSGGVGVSNDNHGAGGTAAVSYQGATVFEPEVGYYNDPVAVFDFASLYPSIIMAHNLCYSTLLVPGGEYPVDPADVYSVTLENGVTHRFVRASVRVSVLSELLNKWVSQRRAVRECMRECQDPVRRMLLDKEQMALKVTCNAFYGFTGVVNGMMPCLPIAASITRIGRDMLERTARFIKDNFSEPCFLHNFFNQEDYVVGTREGDSEESSALPEGLETSSGGSNERRVEARVIYGDTDSVFVRFRGLTPQALVARGPSLAHYVTACLFVEPVKLEFEKVFVSLMMICKKRYIGKVEGASGLSMKGVDLVRKTACEFVKGVTRDVLSLLFEDREVSEAAVRLSRLSLDEVKKYGVPRGFWRILRRLVQARDDLYLHRVRVEDLVLSSVLSKDISLYRQSNLPHIAVIKRLAARSEELPSVGDRVFYVLTAPGVRTAPQGSSDNGDSVTAGVVSRSDAIDGTDDDADGGGVEESNRRGGEPAKKRARKPPSAVCNYEVAEDPSYVREHGVPIHADKYFEQVLKAVTNVLSPVFPGGETARKDKFLHMVLPRRLHLEPAFLPYSVKAHECC
notes: also called GAD-UL54; source: yeast two-hybrid fusion (S. cerevisiae L40)
B2 gave a β-gal expression [2] of 8240 Units.

B3 gave a β-gal expression [3] of 6920 Units.
